From patent US20210101970A1 (Pfizer, published 2021) come the findings set out here.

Numbering of substitutions follows the chain as printed.

In one test the target is T1, human CXCR5 (human, UniProt P32302 1-372).
T1 construct: also called hCXCR5; C-X-C chemokine receptor type 5
T1 sequence: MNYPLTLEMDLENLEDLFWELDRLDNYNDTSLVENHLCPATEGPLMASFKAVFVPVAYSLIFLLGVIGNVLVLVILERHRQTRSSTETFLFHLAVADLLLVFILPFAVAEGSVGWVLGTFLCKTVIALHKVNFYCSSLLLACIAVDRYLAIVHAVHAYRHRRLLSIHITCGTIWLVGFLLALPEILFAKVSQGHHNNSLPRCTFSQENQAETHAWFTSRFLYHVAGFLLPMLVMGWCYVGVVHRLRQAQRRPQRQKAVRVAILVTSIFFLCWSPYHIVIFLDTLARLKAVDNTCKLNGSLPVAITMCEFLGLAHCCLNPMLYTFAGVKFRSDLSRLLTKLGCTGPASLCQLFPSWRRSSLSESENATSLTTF
Nature of the test: flow cytometry, human PBMC Tfh-like cells. Here is the method: (§1) The apparent affinity for cell surface CXCR5 of chimeric and humanized CXCR5 fucosylated and afucosylated antibodies was assessed. More specifically, to determine the apparent affinity of chimeric and humanized CXCR5 antibodies to CXCR5-expressing cells, cell binding experiments were performed on human and cynomolgus monkey peripheral blood mononuclear cells (PBMCs) and human tonsillar mononuclear cells (TMCs). The apparent affinity of CXCR5 mab binding to CXCR5+ cells (B cells, bona fide Tfh cells, and circulating Tfh-like cells) was calculated as the EC50 of equilibrium binding titration curves in which the geometric mean fluorescence intensity (gMFI) of the antigen binding population was quantified by flow cytometry.
(§2) Following isolation, PBMCs were plated at a density of 1.0×10⁵ cells per well and CD4+ TMCs were plated at a density of 2.0×10⁵ cells per well in isolation buffer (PBS containing 1% FBS and 1 mM EDTA) in 96 well U-bottom plates. The plates were then centrifuged at 1500 rpm for 5 minutes at room temperature. PBMCs and CD4+ TMCs were resuspended in Fluorescence-activated cell sorting (FACS) buffer (PBS containing 1% FBS) containing human crystallized fragment Fc block (2 μL per well; Biolegend) and 4-fold serial dilutions of the antibodies (11-point dilution series, beginning at 5000 ng/mL for PBMCs and 312.5 ng/mL for CD4+ TMCs) and incubated on ice for 2 hours. […]

The next test addresses T2, cynomolgus monkey CXCR5 (cynomolgus monkey, UniProt P32302 1-372 (human entry)).
T2 construct: also called cynoCXCR5; NHP CXCR5
T2 chain: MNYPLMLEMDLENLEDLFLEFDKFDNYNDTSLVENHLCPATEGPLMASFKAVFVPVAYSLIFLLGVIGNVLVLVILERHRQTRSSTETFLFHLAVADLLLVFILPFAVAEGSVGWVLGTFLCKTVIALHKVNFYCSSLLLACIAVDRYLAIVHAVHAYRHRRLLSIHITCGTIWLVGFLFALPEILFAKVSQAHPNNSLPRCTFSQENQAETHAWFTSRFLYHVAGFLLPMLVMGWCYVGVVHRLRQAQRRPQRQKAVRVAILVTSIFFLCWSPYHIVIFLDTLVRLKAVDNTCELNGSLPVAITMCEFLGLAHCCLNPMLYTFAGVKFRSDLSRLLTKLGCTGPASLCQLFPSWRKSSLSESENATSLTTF
Nature of the test: flow cytometry, cynomolgus PBMC Tfh-like cells. Here is the method:
as §1, §2

A further test deals with T3, XC281 (human, UniProt P32302 2-372).
T3 construct: also called hCXCR5 D22A
T3 sequence: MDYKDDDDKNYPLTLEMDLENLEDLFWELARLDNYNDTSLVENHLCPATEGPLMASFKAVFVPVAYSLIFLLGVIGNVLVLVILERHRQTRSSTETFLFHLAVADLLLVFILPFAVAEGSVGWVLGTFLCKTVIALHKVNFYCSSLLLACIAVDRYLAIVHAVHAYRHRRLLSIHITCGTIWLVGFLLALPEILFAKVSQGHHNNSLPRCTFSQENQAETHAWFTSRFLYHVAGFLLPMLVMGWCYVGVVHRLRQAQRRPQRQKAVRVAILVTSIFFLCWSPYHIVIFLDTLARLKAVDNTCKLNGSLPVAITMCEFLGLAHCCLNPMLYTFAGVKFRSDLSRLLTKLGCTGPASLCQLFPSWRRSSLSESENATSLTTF
Nature of the test: flow cytometry on HEK-293T cells transiently expressing the FLAG-tagged mutein; ratio of gMFI of the antibody to gMFI of anti-FLAG PE. Here is the method: (§3) The cells were analyzed by flow cytometry using an Accuri (BD Biosciences Franklin Lakes, N.J.). The geometric mean fluorescence intensity (gMFI) was determined and the ratio for the gMFI of each CXCR5 antibody and anti-flag was calculated.

Another test deals with T4, XC278 (human, UniProt P32302 2-372).
T4 construct: also called hCXCR5 L11T
T4 sequence: T3 sequence with L19T, A30D
The description is as above. Here is the method:
as §3

B1: Afucosyl humanized 11G2 154/155 (antibody, human IgG1, kappa, V domains shown)
VH: EVQLVESGGGLVQPGGSLRLSCAASGFTFTDFYMSWVRQAPGKGLEWVGFIRNKANGYTTEYSASVKGRFTISRDNAKNSLYLQMNSLRAEDTAVYYCARVYGSTLHYWGQGTLVTVSS
VL: DIQMTQSPSSLSASVGDRVTITCRASESVEYHGTSLMHWYQQKPGKAPKLLIYAASNVESGVPSRFSGSGSGTDFTLTISSLQPEDFATYYCQQSRKVPWTFGQGTKVEIKR
modifications: afucosylated Fc glycan (Asn297)
notes: also called afucosyl h11G2 XC154/XC155; afucosylated h11G2 VL XC154/VH XC155
B1: the EC50 with human CXCR5 worked out at 5.89 pM; with cynomolgus monkey CXCR5, 0.0105 nM. Besides, the binding result in the test with XC281 and in the test with XC278 was “no binding (tested: 1 or 3 µg/ml (not on the sheet))” each time.
